Measurements from paper PMC9684461, “RNA-controlled nucleocytoplasmic shuttling of mRNA decay factors regulates mRNA synthesis and a novel mRNA decay pathway” (Nature Communications, 2021).

B1: recombinant 6xHis-tagged Kap120 (natural protein, S. cerevisiae, UniProt Q02932 1-1032, looked up)
chain: MASSLNELNLVQVLEQASNPQHIRSDVQKLAEQQLRQWETQAGFHYLLQSIYLNLSNSLQIRWLAVIQFKNGVDKYWRSTRINAIPKDEKASIRGRLFEMIDEQNNQLCIQNAQASARIARLDFPVEWPTLFEDLENLLNDEIIRKDSVKIYNILMHINQIVKVLGTARIGRCRPAMQSKVPLILPLIVRIYLQSFEEWTTSSNLNYEDLSSLQVSYLALKVLRRIICEGYDRPQTDQSVCDFIKLSVSHFEMLISNHENFKKFDIYEKFIKCLGKLYFNLVTGSPANFILLPCSTQILITYTRLIFDKAPKVYRENSDVTGDFWEQTAIRGLLILKRVINFIHKKGAITLKARSDKLTIDASINKINTEFLNENLITRLVDTLMEWYLRLRPTELENWFMDPEEWINEQMATSYEYQIRPCAENVFQDLMNTFSELLVPYLLKKIENDASKLSNSLDDFLRKDAIYASFQLSASAVSEMVDFDRLLIQVFLPEATNTNISGDELRIIRRRVALIINEWSTVKCSEESKSLCYKLFTNFLTDEDDKVVLLTTVQTVRTMVDDWNFNKDTFQPFLTENVHLLLRKILPSVSLTETRLYVLNTLSDIIIQTKPLISRDLLVEILQIIPNLWEIATNNASEAILANALLRLLRNLVSSLGSQSHLTWDIAIPVVALACDPSSMQYQLLSEDGYELWGMLLQNFSSHDQEFDDKFVELVPFLKYGIETHTEILPTLLEIIKSYALILNPVDFFSNNTFQDIFKQMSKYLLKLREDSFQLVLEIWEILILSNESDYENLLLQKFYETGVLSALFDAIFLEEAPSSYLCSQIIQIIARISYVNPDALMTFLATYHDNLPTSNENARMPESIRKIVSKDQTYDSVVNKLLTGWIVCFRDIFDPKFKKVHILGISSLLRTGLVPILTEFSSIASLWIEMLEEINETNRGDCEKYHLNDIVTEQSIAFHPLTAEQLRYHQLCKNNDPVHNISLKDFISQSMEYLESHLGVERYQEFLKTINPSLLENLQMFLSIQPQEARP
notes: karyopherin (importin) Kap120 of S. cerevisiae; also called Kap120-6xHis; Kap120-His; source: E. coli, IPTG induced, purified (Ni-NTA)

Assays:
[1] = biological target: B1; test: pull-down; purified Kap120-6xHis mixed with purified Xrn1-FLAG (WT or mutant), 1 h at 4 °C in a rotator; complex captured on Ni-NTA, Western blotting; Xrn1-FLAG intensity normalized to Kap120
Xrn1 WT = Xrn1 WT (Saccharomyces cerevisiae, UniProt P22147 1-1528); test: pull-down on FLAG beads, competition by Kap120; Kap120 prevents RNA binding dose-dependently; EMSA: 50 mM Tris-HCl pH 7.4, 150 mM NaCl, 2 mM DTT, 1 mM EDTA, 30 min at room temperature, 6% native PAGE in 0.5x TBE; pull-downs with RNA: 2 mM EDTA, 1 h at 4; conditions: protein: native; tags: FLAG; label: Cy3
[2] = biological target: T1, FLAG-tagged Xrn1 (wild type) (S. cerevisiae, UniProt P22147 1-1528); test: pull-down; purified Kap120-6xHis mixed with purified Xrn1-FLAG (WT or mutant), 1 h at 4 °C in a rotator; complex captured on Ni-NTA, Western blotting; Xrn1-FLAG intensity normalized to Kap120; conditions: both partners purified
T1 construct: 5' to 3' exonuclease Xrn1 (alias Kem1) of S. cerevisiae, called full-length Xrn1 for the FLAG-tagged purified protein; also called Xrn1-FLAG; Xrn1^WT; source: genomically FLAG-tagged strain, in lysate, for the IP with mass spectrometry

[3] = biological target: B1; test: pull-down; GFP-tagged Tail held on GFP-Trap resin in a small column, washed 3 times; purified Kap120-His added, 1 h at 4 °C; eluted with 2X LSB at 95 °C; conditions: both partners purified
TAP-tagged Kap120 = biological target: T2, TAP-tagged Kap120 (S. cerevisiae, UniProt Q02932 1-1032); test: co-IP; TAP-tagged Kap120 affinity purified with IgG-sepharose from extract of optimally proliferating yeast (WT or Xrn1^ΔNLS1/2 cells); co-IPed proteins by Western blotting; signals normalized to Kap120; conditions: partners not purified
T2 construct: karyopherin Kap120 of S. cerevisiae, TAP-tagged, expressed in yeast; also called Kap120-TAP; source: yeast, in extract, captured on IgG-sepharose
T2 sequence (looked up): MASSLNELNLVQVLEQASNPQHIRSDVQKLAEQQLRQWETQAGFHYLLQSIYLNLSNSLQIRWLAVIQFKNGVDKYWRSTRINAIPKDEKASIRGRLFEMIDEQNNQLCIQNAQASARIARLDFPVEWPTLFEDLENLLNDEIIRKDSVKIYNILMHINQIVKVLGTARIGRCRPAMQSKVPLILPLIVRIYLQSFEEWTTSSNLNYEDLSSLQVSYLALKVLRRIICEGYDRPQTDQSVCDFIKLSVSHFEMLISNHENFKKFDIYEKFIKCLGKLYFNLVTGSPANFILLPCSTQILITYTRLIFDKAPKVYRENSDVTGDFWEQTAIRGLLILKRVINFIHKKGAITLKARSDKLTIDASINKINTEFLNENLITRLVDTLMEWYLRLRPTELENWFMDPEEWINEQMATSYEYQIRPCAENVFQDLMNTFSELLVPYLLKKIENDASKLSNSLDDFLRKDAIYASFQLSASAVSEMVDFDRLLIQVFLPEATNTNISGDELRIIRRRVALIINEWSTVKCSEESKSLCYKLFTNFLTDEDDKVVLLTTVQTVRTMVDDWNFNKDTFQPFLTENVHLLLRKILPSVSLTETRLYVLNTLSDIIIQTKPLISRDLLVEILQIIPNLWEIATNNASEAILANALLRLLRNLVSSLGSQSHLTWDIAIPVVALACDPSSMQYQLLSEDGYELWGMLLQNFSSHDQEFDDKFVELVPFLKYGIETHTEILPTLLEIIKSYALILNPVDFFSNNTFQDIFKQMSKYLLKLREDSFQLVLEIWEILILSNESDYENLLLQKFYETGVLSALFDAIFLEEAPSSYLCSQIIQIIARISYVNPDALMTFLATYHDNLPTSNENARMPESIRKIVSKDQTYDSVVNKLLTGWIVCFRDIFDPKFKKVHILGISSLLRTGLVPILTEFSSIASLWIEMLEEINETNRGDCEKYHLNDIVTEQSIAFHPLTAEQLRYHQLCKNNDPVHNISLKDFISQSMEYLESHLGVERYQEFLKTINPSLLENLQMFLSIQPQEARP

Sequence of Xrn1 WT (P22147 whole entry): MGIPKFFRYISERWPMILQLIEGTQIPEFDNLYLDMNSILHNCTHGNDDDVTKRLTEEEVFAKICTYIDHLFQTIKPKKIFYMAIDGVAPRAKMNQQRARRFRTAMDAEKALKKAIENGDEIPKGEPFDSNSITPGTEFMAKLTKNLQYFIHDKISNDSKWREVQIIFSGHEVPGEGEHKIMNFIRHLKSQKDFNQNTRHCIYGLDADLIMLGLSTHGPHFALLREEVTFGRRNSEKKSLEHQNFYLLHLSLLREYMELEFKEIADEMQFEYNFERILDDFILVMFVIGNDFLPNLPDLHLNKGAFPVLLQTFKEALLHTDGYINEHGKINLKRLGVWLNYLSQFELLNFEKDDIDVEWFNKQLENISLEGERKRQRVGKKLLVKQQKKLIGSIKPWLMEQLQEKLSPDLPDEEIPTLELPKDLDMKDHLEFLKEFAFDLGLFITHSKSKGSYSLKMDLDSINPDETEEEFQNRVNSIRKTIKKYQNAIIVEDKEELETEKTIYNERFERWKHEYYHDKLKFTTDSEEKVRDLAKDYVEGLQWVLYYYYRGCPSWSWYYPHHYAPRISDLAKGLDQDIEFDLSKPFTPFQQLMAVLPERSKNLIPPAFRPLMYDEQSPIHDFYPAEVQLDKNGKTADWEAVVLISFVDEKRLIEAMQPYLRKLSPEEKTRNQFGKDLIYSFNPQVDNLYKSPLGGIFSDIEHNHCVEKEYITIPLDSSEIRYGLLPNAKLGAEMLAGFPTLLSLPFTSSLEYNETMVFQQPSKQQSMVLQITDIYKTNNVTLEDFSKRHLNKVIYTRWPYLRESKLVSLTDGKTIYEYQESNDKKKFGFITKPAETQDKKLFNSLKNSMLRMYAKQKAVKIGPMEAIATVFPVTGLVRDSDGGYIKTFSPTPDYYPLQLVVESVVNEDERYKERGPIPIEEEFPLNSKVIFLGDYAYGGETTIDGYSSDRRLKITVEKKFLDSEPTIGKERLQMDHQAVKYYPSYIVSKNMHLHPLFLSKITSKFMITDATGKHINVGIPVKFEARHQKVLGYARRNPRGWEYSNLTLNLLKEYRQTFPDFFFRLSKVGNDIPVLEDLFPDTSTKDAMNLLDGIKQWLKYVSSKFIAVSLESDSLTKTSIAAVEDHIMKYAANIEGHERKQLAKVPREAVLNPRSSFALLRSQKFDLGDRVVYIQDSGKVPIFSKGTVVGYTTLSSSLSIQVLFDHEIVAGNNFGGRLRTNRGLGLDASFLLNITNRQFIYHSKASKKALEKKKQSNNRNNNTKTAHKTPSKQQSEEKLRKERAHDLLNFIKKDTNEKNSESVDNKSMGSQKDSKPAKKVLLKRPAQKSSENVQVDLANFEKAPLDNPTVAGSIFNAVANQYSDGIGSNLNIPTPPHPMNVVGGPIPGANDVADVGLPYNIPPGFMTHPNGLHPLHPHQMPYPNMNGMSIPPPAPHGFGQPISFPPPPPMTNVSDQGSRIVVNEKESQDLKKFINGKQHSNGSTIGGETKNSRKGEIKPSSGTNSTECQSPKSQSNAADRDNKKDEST
T1 sequence (P22147 whole entry): as above

Molecule: FLAG-tagged Xrn1^ΔNLS1/2 (from UniProt P22147 1-1528) (enzyme)
- fold weaker than Xrn1^WT-Kap120 [1]: 4.5 fold

Molecule: AUGUACAGUCCGACGAACACGGAGUCGACCCGCAACGCGA (ssRNA) [Cy3-labeled 40 b RNA]
- binding result (Xrn1 WT): binds

Molecule: B1
- binding result [2]: binds

B2: GFP-tagged Tail of Xrn1 (domain or fragment, S. cerevisiae, UniProt P22147 351-521, looked up)
chain: EKDDIDVEWFNKQLENISLEGERKRQRVGKKLLVKQQKKLIGSIKPWLMEQLQEKLSPDLPDEEIPTLELPKDLDMKDHLEFLKEFAFDLGLFITHSKSKGSYSLKMDLDSINPDETEEEFQNRVNSIRKTIKKYQNAIIVEDKEELETEKTIYNERFERWKHEYYHDKLK
notes: holds NLS1; also called Tail-GFP; linker domain; source: yeast, expressed under ADH1 promoter and terminator; pulled down with GFP-Trap resin and washed
- binding result [3]: binds

B3: Pat1 (natural protein, S. cerevisiae (endogenous in yeast), UniProt P25644 1-796, looked up)
chain: MSFFGLENSGNARDGPLDFEESYKGYGEHELEENDYLNDETFGDNVQVGTDFDFGNPHSSGSSGNAIGGNGVGATARSYVAATAEGISGPRTDGTAAAGPLDLKPMESLWSTAPPPAMAPSPQSTMAPAPAPQQMAPLQPILSMQDLERQQRQMQQQFMNFHAMGHPQGLPQGPPQQQFPMQPASGQPGPSQFAPPPPPPGVNVNMNQMPMGPVQVPVQASPSPIGMSNTPSPGPVVGATKMPLQSGRRSKRDLSPEEQRRLQIRHAKVEKILKYSGLMTPRDKDFITRYQLSQIVTEDPYNEDFYFQVYKIIQRGGITSESNKGLIARAYLEHSGHRLGGRYKRTDIALQRMQSQVEKAVTVAKERPSKLKDQQAAAGNSSQDNKQANTVLGKISSTLNSKNPRRQLQIPRQQPSDPDALKDVTDSLTNVDLASSGSSSTGSSAAAVASKQRRRSSYAFNNGNGATNLNKSGGKKFILELIETVYEEILDLEANLRNGQQTDSTAMWEALHIDDSSYDVNPFISMLSFDKGIKIMPRIFNFLDKQQKLKILQKIFNELSHLQIIILSSYKTTPKPTLTQLKKVDLFQMIILKIIVSFLSNNSNFIEIMGLLLQLIRNNNVSFLTTSKIGLNLITILISRAALIKQDSSRSNILSSPEISTWNEIYDKLFTSLESKIQLIFPPREYNDHIMRLQNDKFMDEAYIWQFLASLALSGKLNHQRIIIDEVRDEIFATINEAETLQKKEKELSVLPQRSQELDTELKSIIYNKEKLYQDLNLFLNVMGLVYRDGEISELK
notes: mRNA decay factor Pat1 of S. cerevisiae, detected with anti-Pat1 antibodies; source: endogenous, yeast extract
- fold reduction of the co-IP in Xrn1^ΔNLS1/2 cells against WT cells (TAP-tagged Kap120): ~5 fold

B4: Dhh1 (natural protein, S. cerevisiae (endogenous in yeast), UniProt P39517 1-506, looked up)
chain: MGSINNNFNTNNNSNTDLDRDWKTALNIPKKDTRPQTDDVLNTKGNTFEDFYLKRELLMGIFEAGFEKPSPIQEEAIPVAITGRDILARAKNGTGKTAAFVIPTLEKVKPKLNKIQALIMVPTRELALQTSQVVRTLGKHCGISCMVTTGGTNLRDDILRLNETVHILVGTPGRVLDLASRKVADLSDCSLFIMDEADKMLSRDFKTIIEQILSFLPPTHQSLLFSATFPLTVKEFMVKHLHKPYEINLMEELTLKGITQYYAFVEERQKLHCLNTLFSKLQINQAIIFCNSTNRVELLAKKITDLGYSCYYSHARMKQQERNKVFHEFRQGKVRTLVCSDLLTRGIDIQAVNVVINFDFPKTAETYLHRIGRSGRFGHLGLAINLINWNDRFNLYKIEQELGTEIAAIPATIDKSLYVAENDETVPVPFPIEQQSYHQQAIPQQQLPSQQQFAIPPQQHHPQFMVPPSHQQQQAYPPPQMPSQQGYPPQQEHFMAMPPGQSQPQY
notes: mRNA decay factor Dhh1 of S. cerevisiae, detected with anti-Dhh1 antibodies; source: endogenous, yeast extract
- fold reduction of the co-IP in Xrn1^ΔNLS1/2 cells against WT cells (TAP-tagged Kap120): ~5 fold
